Results as given in paper PMC4484057.

Tests used:
Gαi1-intYFP = Gαi1-intYFP (UniProt P63096); assay: FRET or BRET; living HeLa cells cotransfected with Gαi1-intYFP, CFP-Gβ1 and Gγ2, 0.2% FBS overnight, before stimulation (t0); confocal, FRET efficiency at the plasma membrane; also Daple-depleted cells with or without Wnt5a, and Wnt3 stimulation, where FRET continued
GST-FZD7-CT = GST-FZD7-CT (UniProt O75084); assay: pull-down; as a19, His-Gαi3 (GDP) with GST-FZD7-CT in the presence of His-Daple-CT WT

His-Gαi3, sequence (P08753 whole entry): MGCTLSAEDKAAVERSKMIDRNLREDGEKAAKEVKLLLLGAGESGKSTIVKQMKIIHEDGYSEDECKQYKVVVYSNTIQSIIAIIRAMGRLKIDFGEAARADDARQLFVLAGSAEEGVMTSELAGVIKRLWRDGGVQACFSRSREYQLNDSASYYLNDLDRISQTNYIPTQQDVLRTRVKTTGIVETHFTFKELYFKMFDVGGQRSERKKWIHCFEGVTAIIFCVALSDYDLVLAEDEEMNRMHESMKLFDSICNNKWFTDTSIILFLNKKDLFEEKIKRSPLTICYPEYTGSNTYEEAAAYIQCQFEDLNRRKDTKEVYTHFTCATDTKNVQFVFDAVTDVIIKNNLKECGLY
Gαi1-intYFP, sequence (P63096 whole entry): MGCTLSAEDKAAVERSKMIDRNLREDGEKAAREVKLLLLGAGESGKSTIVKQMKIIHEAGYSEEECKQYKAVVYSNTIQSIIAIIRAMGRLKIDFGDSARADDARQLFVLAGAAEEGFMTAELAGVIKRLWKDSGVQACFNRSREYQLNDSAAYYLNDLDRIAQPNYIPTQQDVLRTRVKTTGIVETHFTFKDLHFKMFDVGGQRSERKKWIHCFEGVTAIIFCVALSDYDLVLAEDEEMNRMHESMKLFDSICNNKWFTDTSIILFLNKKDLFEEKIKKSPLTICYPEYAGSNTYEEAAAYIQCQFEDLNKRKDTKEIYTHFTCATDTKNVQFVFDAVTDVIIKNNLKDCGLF

Substance | FRET efficiency (Gαi1-intYFP) | fold increase of binding in the presence of m2 (GST-FZD7-CT)
CFP-Gβ1 with Gγ2 (from UniProt P62873 1-340; P59768 1-71) (complex) | 0.36 | 
His-Gαi3 (from UniProt P08753 1-354) (natural protein) |  | 5 fold
